First the molecules themselves.
B1: BCCIPα-ΔL (residues 50 to 322 with deletions of residues 112 to 122 and 231 to 280) (domain or fragment, human, UniProt Q9P287-2 50-322, looked up)
chain: DEVIDEEVNIEFEAYSLSDNDYDGIKKLLQQLFLKAPVNTAELTDLLIQQNHIGSVIKQTDVEVFGFISLLNLTERKGTQCVEQIQELVLRFCEKNCEKSMVEQLDKFLNDTTKPVGLLLSERFINVPPQIALPMYQQLQKELAGAHRTNKPCGKCYFYLLISKTFVEAGQHNGGSRGQVTALVSLKAGLIQSRSTLSDFQGTFMTVGIALS
notes: human BCCIPα residues 50 to 322 with two loop deletions; source: E. coli BL21 (DE3), purified (Ni-NTA, on-column 3C cleavage, Resource Q); not shown: His6, N-terminal, cleaved
B2: BCCIPα with a Myc-tag (natural protein, human, UniProt Q9P287-2 1-322, looked up)
chain: MASRSKRRAVESGVPQPPDPPVQRDEEEEKEVENEDEDDDDSDKEKDEEDEVIDEEVNIEFEAYSLSDNDYDGIKKLLQQLFLKAPVNTAELTDLLIQQNHIGSVIKQTDVSEDSNDDMDEDEVFGFISLLNLTERKGTQCVEQIQELVLRFCEKNCEKSMVEQLDKFLNDTTKPVGLLLSERFINVPPQIALPMYQQLQKELAGAHRTNKPCGKCYFYLLISKTFVEAGKNNSKKKPSNKKKAALMFANAEEEFFYEEQGKPEVLGGPDTRRGLEPVPIQHNGGSRGQVTALVSLKAGLIQSRSTLSDFQGTFMTVGIALS
B3: Nb.1 (VHH)
VHH: QVQLQESGGGLVQAGGSLRLSCAASGTISPRGVMGWYRQAPGKEREFVAAINYGGTTYYADSVKGRFTISRDNAKNTVYLQMNSLKPEDTAVYYCAVYYYINSQRKVLLYWGQGTQVTVSS
notes: nanobody selected from a synthetic yeast-display library; cloned into a modified pET28 vector; also called nanobody Nb.1
B4: BCCIPα-ΔS (residues 50 to 322 with deletions of residues 112 to 122, 235 to 243, and 273 to 276) (domain or fragment, human, UniProt Q9P287-2 50-322, looked up)
chain: DEVIDEEVNIEFEAYSLSDNDYDGIKKLLQQLFLKAPVNTAELTDLLIQQNHIGSVIKQTDVEVFGFISLLNLTERKGTQCVEQIQELVLRFCEKNCEKSMVEQLDKFLNDTTKPVGLLLSERFINVPPQIALPMYQQLQKELAGAHRTNKPCGKCYFYLLISKTFVEAGKNNSAALMFANAEEEFFYEEQGKPEVLGGPDTRPVPIQHNGGSRGQVTALVSLKAGLIQSRSTLSDFQGTFMTVGIALS
notes: human BCCIPα residues 50 to 322 with three loop deletions; source: E. coli BL21 (DE3), purified (Ni-NTA, on-column 3C cleavage, Resource Q); not shown: His6, N-terminal, cleaved

The target of assay [1] is T1, FAM46A (residues 64 to 394) (human, UniProt Q96IP4 64-394).
T1 construct: human FAM46A (TENT5A) residues 64 to 394; also called TENT5A; source: E. coli BL21 (DE3), purified (Ni-NTA, on-column 3C cleavage, Resource Q); not shown: His6, N-terminal, cleaved
T1 sequence (looked up): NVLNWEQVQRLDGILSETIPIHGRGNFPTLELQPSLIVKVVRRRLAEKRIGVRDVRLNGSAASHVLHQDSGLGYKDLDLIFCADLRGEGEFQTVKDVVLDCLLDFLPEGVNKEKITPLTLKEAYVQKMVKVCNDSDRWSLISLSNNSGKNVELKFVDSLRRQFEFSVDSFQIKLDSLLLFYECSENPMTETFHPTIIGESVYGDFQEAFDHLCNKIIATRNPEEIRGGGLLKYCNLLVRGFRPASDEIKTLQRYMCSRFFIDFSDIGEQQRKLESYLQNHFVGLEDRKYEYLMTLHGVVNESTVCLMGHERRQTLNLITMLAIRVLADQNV
Description: crystal structure; FAM46A (64-394) with BCCIPα-ΔS (3.5 Å) or BCCIPα-ΔL (3.2 Å); complexes mixed 1:1 and purified on Superdex 200. To be noted: both partners purified.

Assay [2] concerns the target T2, Full-length human FAM46C with a FLAG-tag (human, UniProt Q5VWP2 1-391).
T2 sequence (looked up): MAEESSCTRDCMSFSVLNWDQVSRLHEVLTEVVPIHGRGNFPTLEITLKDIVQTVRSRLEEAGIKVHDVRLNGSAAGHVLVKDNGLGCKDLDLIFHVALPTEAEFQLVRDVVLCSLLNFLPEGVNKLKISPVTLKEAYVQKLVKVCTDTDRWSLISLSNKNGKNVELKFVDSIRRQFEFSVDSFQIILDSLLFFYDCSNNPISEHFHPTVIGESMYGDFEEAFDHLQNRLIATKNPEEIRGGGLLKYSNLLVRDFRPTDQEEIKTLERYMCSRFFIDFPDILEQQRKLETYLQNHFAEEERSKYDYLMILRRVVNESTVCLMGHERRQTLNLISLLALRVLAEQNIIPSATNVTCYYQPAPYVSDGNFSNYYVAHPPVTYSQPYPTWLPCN
The assay is described as follows: cell-based or functional assay.

Assay [3] addresses T3, Full-length human FAM46A with a FLAG-tag (human, UniProt Q96IP4 1-442).
T3 sequence (looked up): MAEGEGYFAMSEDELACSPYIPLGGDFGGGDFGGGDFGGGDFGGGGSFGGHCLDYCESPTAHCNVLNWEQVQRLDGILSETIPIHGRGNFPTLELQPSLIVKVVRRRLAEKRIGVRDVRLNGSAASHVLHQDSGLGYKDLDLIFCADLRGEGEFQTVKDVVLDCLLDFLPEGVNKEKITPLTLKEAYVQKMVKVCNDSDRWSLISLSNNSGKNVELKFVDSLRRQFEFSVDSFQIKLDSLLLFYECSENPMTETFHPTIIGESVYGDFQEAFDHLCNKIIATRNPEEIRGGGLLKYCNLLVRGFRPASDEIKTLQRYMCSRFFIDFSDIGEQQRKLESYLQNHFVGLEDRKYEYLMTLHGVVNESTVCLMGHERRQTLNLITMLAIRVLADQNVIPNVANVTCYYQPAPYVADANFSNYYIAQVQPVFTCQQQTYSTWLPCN
The assay is described as follows: cell-based or functional assay.

Assay [4] addresses B4. Description: cryo-EM structure; FAM46C/BCCIPα-ΔS/Nb.1 mixed 1:1:2, purified on Superdex 200; filament segments treated as single particles, D2 symmetry, 6.5 Å; models docked as rigid bodies. To be noted: both partners purified.
For assay [5], the target named is T4, FAM46C/BCCIPα-ΔS complex (human, UniProt Q5VWP2 1-391; Q9P287-2 50-322, deletions of residues 112 to 122 | deletions of residues 235 to 243 | deletions …).
T4 construct: human FAM46C (TENT5C), as m15; Avi-tagged, biotinylated FAM46C residues 15 to 350 in the nanobody screening; human BCCIPα residues 50 to 322 with three loop deletions, as m12; with Nb.1 it forms a 4:4:4 assembly of four 1:1:1 units and filaments; also called FAM46C/BCCIPα complex; FAM46C/BCCPα complex; source: E. coli BL21 (DE3), each protein purified, then mixed; not shown: His6, N-terminal, …
The description is as above. The settings on record: both partners purified.

As for B1, in assay [1], the binding result is given as “binds”.

For B2, the “mean nucleus/cytoplasm intensity ratio of FAM46C in U2OS cells coexpressing BCCIPα (immunofluorescence; 1.94 without BCCIPα)” value in assay [2] came out at 3.04. In addition, in assay [3], the “mean nucleus/cytoplasm intensity ratio of FAM46A in U2OS cells coexpressing BCCIPα (immunofluorescence; 1.90 without BCCIPα)” value was determined as 2.85.

Regarding B3, the binding result in assay [4] is “binds”. In addition, in assay [5], the stoichiometry N (as a rule, the number of molecules, sites or subunits per partner or assembly) was 1.

B4: the binding result in assay [1] was “binds”.

Source of the values: article PMC10075960, “Inhibition of FAM46/TENT5 activity by BCCIPα adopting a unique fold” (Science Advances, 2023).
